Where two headings read alike, the source gives them in different places.

The values below come from article doi:10.1101/2025.10.29.685377.

In assay [1] the target is Alka channel (Drosophila melanogaster alkaline taste receptor Alka) (Drosophila melanogaster). Description: cryo-EM structure.
The target is the same in assay [2]. Description: cryo-EM structure. This is another data set of the same source.

In the case of “Alka channel (Drosophila melanogaster alkaline taste receptor Alka)”, the stoichiometry N in assay [1] and in assay [2] was 5 each time.
